Results: US20030049702A1

Experiments:
[1] = biological target: GST-DR4 (residues 269-468) (UniProt O00220); experiment: GST pull-down on glutathione-Sepharose, immunoblot against input lane
[2] = biological target: GST-DR4 (residues 269-468) (UniProt O00220); experiment: Scatchard analysis: DAP3-His6 at 0.1-1 µM with 1.0 µg GST-DR4 on glutathione-Sepharose, free and bound DAP3 by immunoblot densitometry

GST-DR4 (residues 269-468), sequence (O00220 269-468, form in doubt): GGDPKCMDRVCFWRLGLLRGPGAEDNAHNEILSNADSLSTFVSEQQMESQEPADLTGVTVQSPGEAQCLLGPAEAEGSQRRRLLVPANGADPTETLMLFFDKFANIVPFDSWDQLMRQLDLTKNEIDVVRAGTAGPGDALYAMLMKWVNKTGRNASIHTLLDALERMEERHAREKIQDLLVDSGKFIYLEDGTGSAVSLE

- percent of input bound [1]: 10 to 20%
- Kd [2]: 16 nM
Substance: DAP3-His6
